# Test results as given in patent US20210395392A1 (Bristol-Myers Squibb, published 2021).
# Changes are numbered by the printed parent chain.
# T1: Human MerTK on hMerTK-expressing cells (human, UniProt Q12866 21-999)
# T1 sequence: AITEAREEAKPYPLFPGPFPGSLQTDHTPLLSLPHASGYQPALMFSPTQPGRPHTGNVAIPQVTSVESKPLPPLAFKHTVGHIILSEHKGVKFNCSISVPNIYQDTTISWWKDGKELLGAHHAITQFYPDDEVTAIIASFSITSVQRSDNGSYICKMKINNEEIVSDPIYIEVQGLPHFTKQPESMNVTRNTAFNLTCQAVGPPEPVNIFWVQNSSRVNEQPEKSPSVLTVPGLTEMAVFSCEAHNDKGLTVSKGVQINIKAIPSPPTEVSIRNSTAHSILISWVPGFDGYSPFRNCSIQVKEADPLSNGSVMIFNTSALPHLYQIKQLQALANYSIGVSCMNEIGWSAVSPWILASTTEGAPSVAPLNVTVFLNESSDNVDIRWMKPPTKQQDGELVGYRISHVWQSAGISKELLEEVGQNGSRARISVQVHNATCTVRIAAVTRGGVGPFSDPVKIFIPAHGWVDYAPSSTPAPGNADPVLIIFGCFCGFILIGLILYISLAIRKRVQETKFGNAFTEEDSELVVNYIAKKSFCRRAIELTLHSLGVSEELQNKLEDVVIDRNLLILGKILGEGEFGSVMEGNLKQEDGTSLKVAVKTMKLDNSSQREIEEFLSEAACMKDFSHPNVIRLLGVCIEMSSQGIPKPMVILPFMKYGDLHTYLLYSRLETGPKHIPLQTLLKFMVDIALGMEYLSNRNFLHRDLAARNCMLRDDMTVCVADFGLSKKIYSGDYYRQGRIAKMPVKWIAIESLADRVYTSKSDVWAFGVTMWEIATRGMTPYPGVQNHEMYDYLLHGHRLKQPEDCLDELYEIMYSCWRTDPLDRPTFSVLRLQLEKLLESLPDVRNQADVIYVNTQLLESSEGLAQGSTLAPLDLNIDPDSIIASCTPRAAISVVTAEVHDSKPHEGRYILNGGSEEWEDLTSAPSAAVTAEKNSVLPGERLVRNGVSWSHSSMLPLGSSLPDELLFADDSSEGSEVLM
# T2: Mouse MerTK on mMerTK-expressing cells (mouse, UniProt Q60805 19-994)
# T2 construct: Receptor construct of the signaling assay is not described
# T2 sequence: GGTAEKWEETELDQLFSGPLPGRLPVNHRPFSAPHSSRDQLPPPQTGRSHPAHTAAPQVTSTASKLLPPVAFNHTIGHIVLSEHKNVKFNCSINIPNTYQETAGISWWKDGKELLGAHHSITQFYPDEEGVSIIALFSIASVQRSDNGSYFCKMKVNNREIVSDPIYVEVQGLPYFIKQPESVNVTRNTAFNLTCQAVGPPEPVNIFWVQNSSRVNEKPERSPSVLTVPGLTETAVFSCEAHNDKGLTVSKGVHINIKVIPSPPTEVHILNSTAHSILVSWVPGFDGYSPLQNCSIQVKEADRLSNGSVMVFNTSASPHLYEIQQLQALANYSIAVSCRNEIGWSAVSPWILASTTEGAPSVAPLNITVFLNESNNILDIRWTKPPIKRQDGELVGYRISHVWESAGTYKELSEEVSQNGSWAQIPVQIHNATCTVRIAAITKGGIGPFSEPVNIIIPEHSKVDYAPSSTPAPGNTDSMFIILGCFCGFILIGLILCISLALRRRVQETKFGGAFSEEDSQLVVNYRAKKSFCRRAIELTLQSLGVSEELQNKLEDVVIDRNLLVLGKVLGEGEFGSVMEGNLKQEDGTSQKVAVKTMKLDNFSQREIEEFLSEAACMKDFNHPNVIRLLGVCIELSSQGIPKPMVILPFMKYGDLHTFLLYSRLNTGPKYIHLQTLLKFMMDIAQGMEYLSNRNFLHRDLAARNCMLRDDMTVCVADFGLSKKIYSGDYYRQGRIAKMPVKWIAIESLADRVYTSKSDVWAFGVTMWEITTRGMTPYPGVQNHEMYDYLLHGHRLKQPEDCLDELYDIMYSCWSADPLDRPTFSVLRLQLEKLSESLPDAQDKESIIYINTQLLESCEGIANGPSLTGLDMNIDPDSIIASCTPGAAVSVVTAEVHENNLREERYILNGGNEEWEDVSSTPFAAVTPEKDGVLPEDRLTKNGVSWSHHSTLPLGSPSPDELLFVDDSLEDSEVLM
# T3: Recombinant soluble extracellular domain of mouse MerTK (mouse, UniProt Q60805 19-497)
# T3 construct: SPR analyte; also called mMerTK
# T3 sequence: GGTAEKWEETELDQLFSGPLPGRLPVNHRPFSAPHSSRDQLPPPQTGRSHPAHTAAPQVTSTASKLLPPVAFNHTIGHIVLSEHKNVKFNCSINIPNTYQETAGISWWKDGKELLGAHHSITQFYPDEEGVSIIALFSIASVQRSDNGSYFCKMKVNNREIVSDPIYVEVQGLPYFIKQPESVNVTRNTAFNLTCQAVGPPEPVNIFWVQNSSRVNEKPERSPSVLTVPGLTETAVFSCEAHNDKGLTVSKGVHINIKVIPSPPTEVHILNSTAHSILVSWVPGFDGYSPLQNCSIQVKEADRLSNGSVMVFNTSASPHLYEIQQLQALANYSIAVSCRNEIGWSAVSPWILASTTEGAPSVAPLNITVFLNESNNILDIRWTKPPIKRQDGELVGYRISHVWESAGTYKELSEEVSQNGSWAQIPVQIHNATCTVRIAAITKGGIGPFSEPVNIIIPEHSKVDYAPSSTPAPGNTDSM
# B1: HuMAb 8N42 (antibody, V domains shown)
# VH: QVQLQQWGAGLLKPSETLSLTCAVYGGSFSIYYWSWIRQPPGKGLELIGEINDEGNTNYNPSLKSRVTISVDTSKNQFSLKLSSVTAADTAVYYCARGGTGDIHAFDIWGQGTMVTVSS
# VL: DIQMTQSPSSLSASVGDRVTITCRASQGISKWLAWYQQKPEKAPKSLIYAASSLQSGVPSRFSGSGSGTDFTLTISSLQPEDFATYYCQQYNSYPWTFGQGTKVEIKR
# notes: Human anti-hMerTK mAb, Bin 1
# B2: HuMAb 25J60 (antibody, human IgG1, kappa, V domains shown)
# VH: QVQLVQSGAEVKKPGASVKVSCKTSGNTQIRYYMYWVRQAPGQGLEWMGILNPNQDQTTYAQKFQGRVTMTRDTSTSTVYMELSSLRSEDTAVYYCATTYRYYMDVWGQGTTVTVSS
# VL: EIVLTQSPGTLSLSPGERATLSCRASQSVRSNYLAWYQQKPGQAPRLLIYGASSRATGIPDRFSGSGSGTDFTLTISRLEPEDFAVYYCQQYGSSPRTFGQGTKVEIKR
# notes: Human anti-hMerTK mAb, Bin 2, derived from HuMAb 25B10 by optimization
# B3: HuMAb 25J80 (antibody, human IgG1, kappa, V domains shown)
# VH: B2 VH with N27R, Q29F, Y35H, L51I, N52W, Q55G, R101K, Y103A
# VL: EIVLTQSPGTLSLSPGERATLSCRASQSVRSNYLAWYQQKPGQAPRLLIYGASSRATGIPDRFSGSGSGTDFTLTISRLEPEDFAVYYCQQYESPPRTFGQGTKVEIKR
# notes: as for B2
# B4: HuMAb 4K10 (antibody, human IgG1, kappa, V domains shown)
# VH: QVQLQQWGAGLLKPSETLSLTCAVYGGSFSGYYWSWLRQPPGKGLEWIGEISHSGSTNYNPSLKSRVTISVDTSKNQFSLKLSSVTAADTAVYYCARALSRYWYFDLWGRGTLVTVSS
# VL: EIVLTQSPATLSLSPGERATLSCRASQSASNYLAWYQQKPGQAPRLLIYDASNRATGIPARFSGSGSGTDFTLTISSLEPEDFAVYYCYQRSQWPISFGQGTRLEIKR
# notes: Human anti-hMerTK mAb, Bin 3
# B5: HuMAb 1B4 (antibody, human IgG1, kappa, V domains shown)
# VH: QLQLQESGPGLVKPSETLSLTCAVSGYSISSGNYWGWIRQSPGKGLEWIGSVDHSGSTYYSPSLKSRVTISVDTSKNQFSLKLNSVTAADTADYYCARNTMIRGVMDWFDPWGQGTLVTVSS
# VL: AIQLTQSPSSLSASVGDRVTITCRASQGISSALAWYQQKPGKAPKVLIYDASSLESGVPSRFSGSGSGTDFTLTISSLQPEDFATYYCQQFRSYPTFGQGTKVEIKR
# notes: Human anti-hMerTK mAb, Bin 1
# B6: HuMAb 22I16 (antibody, human IgG1, kappa, V domains shown)
# VH: EVQLVESGGGLVQPGGSLRLSCAASGFTFSSYSMNWVRQAPGKGLEWVSYIISGSDTIFYADSVKGRFTISRDNAKNSLYLQMNSLRDEDTAVYYCARDETVVRGVINYFDYWGQGTLVTVSS
# VL: B5 VL with A25S, V46L, R92I, K102R, V103L
# notes: Human anti-hMerTK mAb, Bin 1; also called 22116
# Molecular target: T1, Human MerTK on hMerTK-expressing cells
# Experiment: cell-based or functional assay
Binder,Inhibition of Efferocytosis IC50 [nM],"Signaling Assay, hMerTK with Gas6, pSTAT1 IC50 (nM)","Signaling Assay, hMerTK without Gas6, pSTAT1 IC50 (nM)"
B1,0.047,0.572,> 100
B2,0.051,0.093,> 100
B3,0.093,0.227,> 100
B4,> 10,5.42,
B5,0.072,0.33,> 100
B6,0.352,3.41,> 100

# Molecular target: T2, Mouse MerTK on mMerTK-expressing cells
# Experiment: binding to mMerTK-expressing cells; SPR not run
row,Binder,binding result
1,B1,no binding
2,B2,no binding
3,B3,no binding
4,B4,no binding
5,B5,no binding
6,B6,no binding

# Molecular target: T3, Recombinant soluble extracellular …
# Experiment: summary sentence of the description; assay not named
row,Binder,binding result
1,B1,no binding
2,B2,no binding
3,B3,no binding
4,B4,no binding
5,B5,no binding
6,B6,no binding
